Data as given in patent US20100227824A1 (SYMTHERA CANADA, published 2010).
Ends that are not written are not given here.

T1: BCA-1 (CXCL13) (UniProt O43927 23-109)
T1 construct: Bought chemokine
T1 sequence (looked up): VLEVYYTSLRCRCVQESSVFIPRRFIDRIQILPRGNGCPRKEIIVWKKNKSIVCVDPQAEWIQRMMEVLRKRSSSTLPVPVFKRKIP

T2: MCP-2 (CCL8) (UniProt P80075 24-99)
T2 construct: Bought chemokine
T2 sequence (looked up): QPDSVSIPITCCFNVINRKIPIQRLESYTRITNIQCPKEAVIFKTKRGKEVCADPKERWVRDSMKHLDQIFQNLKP

T3: Eotaxin 2 (CCL24) (UniProt O00175 27-104, limits assumed)
T3 construct: Bought chemokine
T3 sequence (looked up): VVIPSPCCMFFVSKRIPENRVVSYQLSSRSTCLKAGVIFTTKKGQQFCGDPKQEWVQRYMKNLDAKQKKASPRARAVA

T4: Lymphotactin (XCL-1) (UniProt P47992 23-114, limits assumed)
T4 construct: Bought chemokine
T4 sequence (looked up): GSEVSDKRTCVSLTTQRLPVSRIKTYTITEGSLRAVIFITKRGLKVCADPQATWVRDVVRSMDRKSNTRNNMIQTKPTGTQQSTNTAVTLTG

T5: GRO-β (CXCL2) (UniProt P19875 35-107)
T5 construct: Bought chemokine
T5 sequence (looked up): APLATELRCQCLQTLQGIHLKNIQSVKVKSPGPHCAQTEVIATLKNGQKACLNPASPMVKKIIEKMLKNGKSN

T6: RANTES (CCL5) (UniProt P13501 24-91)
T6 construct: Bought chemokine
T6 sequence (looked up): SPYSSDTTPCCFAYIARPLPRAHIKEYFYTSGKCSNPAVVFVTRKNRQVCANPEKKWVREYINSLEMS

T7: I-TAC (CXCL11) (UniProt O14625 22-94)
T7 construct: Bought chemokine; also called I-TACK
T7 sequence (looked up): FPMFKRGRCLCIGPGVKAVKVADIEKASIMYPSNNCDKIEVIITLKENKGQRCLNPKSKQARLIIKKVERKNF

T8: TECK (CCL25) (UniProt O15444 24-150)
T8 construct: Bought chemokine
T8 sequence (looked up): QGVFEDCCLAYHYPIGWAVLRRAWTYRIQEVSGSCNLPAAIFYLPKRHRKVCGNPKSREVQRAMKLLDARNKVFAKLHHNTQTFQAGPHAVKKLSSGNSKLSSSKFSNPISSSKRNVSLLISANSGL

T9: Eotaxin 3 (CCL26) (UniProt Q9Y258 24-94)
T9 construct: Bought chemokine
T9 sequence (looked up): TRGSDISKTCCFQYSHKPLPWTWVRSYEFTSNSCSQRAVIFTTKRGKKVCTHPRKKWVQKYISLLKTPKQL

T10: Exodus-2 (CCL21) (UniProt O00585 24-134)
T10 construct: Bought chemokine
T10 sequence (looked up): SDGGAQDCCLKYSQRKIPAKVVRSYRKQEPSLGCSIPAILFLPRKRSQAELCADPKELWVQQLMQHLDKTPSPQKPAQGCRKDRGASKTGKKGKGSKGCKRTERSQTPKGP

T11: IP-10 (CXCL10) (UniProt P02778 22-98)
T11 construct: Bought chemokine
T11 sequence (looked up): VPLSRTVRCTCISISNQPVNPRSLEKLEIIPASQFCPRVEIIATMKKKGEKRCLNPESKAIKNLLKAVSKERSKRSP

T12: Mig (CXCL9) (UniProt Q07325 23-125)
T12 construct: Bought chemokine
T12 sequence (looked up): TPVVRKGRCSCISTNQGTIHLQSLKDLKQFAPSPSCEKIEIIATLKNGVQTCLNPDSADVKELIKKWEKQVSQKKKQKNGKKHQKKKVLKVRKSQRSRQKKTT

T13: I-309 (CCL1) (UniProt P22362 23-96, limits assumed)
T13 construct: Bought chemokine
T13 sequence (looked up): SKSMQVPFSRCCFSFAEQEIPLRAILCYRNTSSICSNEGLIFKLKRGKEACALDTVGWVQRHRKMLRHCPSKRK

B1: Phage-Presented Peptide 8.6 (Ph-p8.6) (peptide)
peptide: WVFGAAACK
B2: Phage-Presented Peptide 15 (Ph-p15) (peptide)
peptide: WVFGSGLCK
B3: Phage-Presented Peptide 27 (Ph-p27) (peptide)
peptide: SYYDDVGL
B4: Phage Presented (Ph) Peptide (p) 8 (peptide)
peptide: WVFGNAMCK
notes: also called Ph-p28; Ph-p 8
B5: Phage-Presented Peptide 17 (Ph-p17) (peptide)
peptide: HYTCSSHFP
modifications: also: displayed on M13 phage, fusion not given here
B6: Phage-Presented Peptide 11 (Ph-p11) (peptide)
peptide: TTFFDYDYG

The binders below were run against T1, BCA-1 (CXCL13) (assay: micro-array, phage-presented peptide on printed CK).
Procedure: (§1) (1) Printing: Chemokine (CK) solution (in water) was serially diluted with Print Reagent (GenTel BioSurfaces USA) to final concentrations of 50 μg and 25 μg/ml. BSA/BSA-Biotin control solutions (in water) were diluted with Print Reagent to 100 μg/ml. Amplified stock of M13 phage control (M13KEgIII Cloning Vector, New England Biolabs, Cat.No.E8101S) was stored in Tris Buffered Saline (TBS; pH7.5, 4° C.) and diluted with Print Reagent to the working titre (10^8 pfu/μl). An automated spotting robot (16 pin print tool, 0.4mm head; BioRobotics, UK) was used to print the CK/BSA control/M13 control, 5 repeats per sample (CK 25 μg/ml and 50 μg/ml; BSA 100 μg/ml; M13 20 μl), on PATH Protein Microarray Slides (GenTel, Prod.No.2-1005/-1025) at […], and 50-70% relative humidity. Printed micro-array slides were stored at Room Temperature (RT) or 4° C. for at least 24 h before use.
(§2) (2) Blocking: Block Buffer (500 μl/partition; PATHblock, GenTel, Prod.No.2-1014) was applied to the slide for 1 hour at room temp (RT). After removal of Block Buffer, the slide was air dried for 25 minutes;
(§3) (11) Analysis: Quantitative analysis of micro-array was performed by the SpotReader program of Niles Scientific (USA) and presented as Relative Fluorescence (RF) as a function of CK concentration. Micro-array readout (Cy3 fluorescence) was quantified to determine the relative binding affinities of a CBP for the CKs and by inference, the specificity of the CBP for binding to a CK.

Row | Binder | binding result
1 | B1 | binds
2 | B2 | binds
3 | B3 | binds

The binders below were run against T2, MCP-2 (CCL8) (assay: micro-array, phage-presented peptide on printed CK).
Procedure: as §1, §2, §3

Row | Binder | Relative Fluorescence Units (RFU) | binding result
4 | B4 | > 25000 | 
5 | B5 | > 600 | 
6 | B1 | > 15000 | 
7 | B6 | > 600 | 
8 | B2 |  | binds
9 | B3 |  | binds

The binders below were run against T3, Eotaxin 2 (CCL24) (assay: micro-array, phage-presented peptide on printed CK).
Procedure: as §1, §2, §3

Row | Binder | binding result
10 | B1 | binds
11 | B2 | binds
12 | B3 | binds

What follows are binders tested against T4, Lymphotactin (XCL-1) (assay: micro-array, phage-presented peptide on printed CK).
Procedure: as §1, §2, §3

Row | Binder | binding result
13 | B5 | binds
14 | B1 | binds
15 | B6 | binds
16 | B2 | binds
17 | B3 | binds

The binders below were run against T5, GRO-β (CXCL2) (assay: micro-array, phage-presented peptide on printed CK).
Procedure: as §1, §2, §3

Row | Binder | binding result
18 | B5 | binds
19 | B6 | binds
20 | B2 | binds
21 | B3 | binds

Each binder was assayed against T14, MCP-4 (CCL13) (UniProt Q99616 24-98) (assay: micro-array, phage-presented peptide on printed CK).
T14 construct: Bought chemokine
Procedure: as §1, §2, §3

T14 sequence (Q99616 24-98 limits assumed): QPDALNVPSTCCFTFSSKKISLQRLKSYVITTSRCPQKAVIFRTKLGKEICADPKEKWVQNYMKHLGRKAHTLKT

Row | Binder | Relative Fluorescence Units (RFU) | binding result
22 | B4 | > 25000 | 
23 | B5 |  | binds
24 | B1 | > 15000 | 
25 | B6 | > 600 | 
26 | B2 |  | binds
27 | B3 |  | binds

Each binder was assayed against T6, RANTES (CCL5) (assay: micro-array, phage-presented peptide on printed CK).
Procedure: as §1, §2, §3

Row | Binder | Relative Fluorescence Units (RFU) | binding result
28 | B5 | > 600 | 
29 | B6 |  | binds
30 | B2 |  | binds
31 | B3 |  | binds

What follows are binders tested against T15, Eotaxin (CCL11) (UniProt P51671 24-97) (assay: micro-array, phage-presented peptide on printed CK).
T15 construct: Bought chemokine
Procedure: as §1, §2, §3

T15 sequence (P51671 24-97 limits assumed): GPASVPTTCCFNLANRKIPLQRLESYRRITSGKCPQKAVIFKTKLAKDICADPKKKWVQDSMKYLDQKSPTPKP

Row | Binder | binding result
32 | B5 | binds
33 | B1 | binds
34 | B6 | binds
35 | B2 | binds
36 | B3 | binds

What follows are binders tested against T7, I-TAC (CXCL11) (assay: micro-array, phage-presented peptide on printed CK).
Procedure: as §1, §2, §3

Row | Binder | binding result | Relative Fluorescence Units (RFU)
37 | B5 | binds | 
38 | B1 | binds | 
39 | B2 |  | > 15000
40 | B3 |  | > 15000

What follows are binders tested against T8, TECK (CCL25) (assay: micro-array, phage-presented peptide on printed CK).
Procedure: as §1, §2, §3

Row | Binder | binding result
41 | B5 | binds
42 | B1 | binds
43 | B6 | binds
44 | B2 | binds
45 | B3 | binds

What follows are binders tested against T9, Eotaxin 3 (CCL26) (assay: micro-array, phage-presented peptide on printed CK).
Procedure: as §1, §2, §3

Row | Binder | binding result
46 | B5 | binds
47 | B1 | binds
48 | B6 | binds
49 | B2 | binds
50 | B3 | binds

The binders below were run against T16, SDF-1α (CXCL12) (UniProt P48061-2 22-89) (assay: micro-array, phage-presented peptide on printed CK).
T16 construct: Alpha isoform of CXCL12; also called SDFα
Procedure: as §1, §2, §3

T16 sequence (P48061 22-89 limits assumed): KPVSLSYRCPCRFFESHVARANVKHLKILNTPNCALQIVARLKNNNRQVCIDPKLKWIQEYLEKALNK

Row | Binder | binding result
51 | B1 | binds

These binders were tested against T10, Exodus-2 (CCL21) (assay: micro-array, phage-presented peptide on printed CK).
Procedure: as §1, §2, §3

Row | Binder | binding result
52 | B1 | binds
53 | B2 | binds
54 | B3 | binds

The binders below were run against T11, IP-10 (CXCL10) (assay: micro-array, phage-presented peptide on printed CK).
Procedure: as §1, §2, §3

Row | Binder | binding result | Relative Fluorescence Units (RFU)
55 | B1 | binds | 
56 | B2 |  | > 15000

These binders were tested against T17, SDF-1β (CXCL12) (UniProt P48061 22-93) (assay: micro-array, phage-presented peptide on printed CK).
T17 construct: Beta isoform of CXCL12; also called SDFβ
Procedure: as §1, §2, §3

T17 sequence (P48061 22-93 limits assumed): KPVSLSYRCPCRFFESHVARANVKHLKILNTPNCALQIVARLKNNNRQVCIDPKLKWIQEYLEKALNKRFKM

Row | Binder | binding result
57 | B1 | binds

Each binder was assayed against T12, Mig (CXCL9) (assay: micro-array, phage-presented peptide on printed CK).
Procedure: as §1, §2, §3

Row | Binder | binding result | Relative Fluorescence Units (RFU)
58 | B5 | binds | 
59 | B1 | binds | 
60 | B6 | binds | 
61 | B2 |  | > 15000
62 | B3 |  | > 15000

Each binder was assayed against T13, I-309 (CCL1) (assay: micro-array, phage-presented peptide on printed CK).
Procedure: as §1, §2, §3

Row | Binder | binding result
63 | B1 | binds

The binders below were run against T18, MCP-1 (CCL2) (UniProt P13500 24-99) (assay: micro-array, phage-presented peptide on printed CK).
T18 construct: Bought chemokine
Procedure: as §1, §2, §3

T18 sequence (P13500 24-99 limits assumed): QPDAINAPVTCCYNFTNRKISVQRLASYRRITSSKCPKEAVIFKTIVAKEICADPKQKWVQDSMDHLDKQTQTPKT

Row | Binder | binding result | Relative Fluorescence Units (RFU)
64 | B5 | binds | 
65 | B1 |  | > 15000
66 | B6 |  | > 600
67 | B2 | binds | 
68 | B3 | binds | 
